Ends that are not written are not given here. * marks the point of attachment. Biotin = O=C1N[C@H]2[C@H](CS[C@H]2CCCCC(=O)*)N1
Columns and labels:
Type in all cases: binding
[1] = target: T1, PDZ protein (GST-PDZ fusion) (Homo sapiens, UniProt Q9NZN5); assay: G' assay (10 uM PL peptide), results of TABLE 7 and TABLE 12; details: PDZ KIAA0382, PDZ Domain 1
T1 construct: made in house; host or cells: E. coli (DH5alpha, BL21 or JM109)
Source text: (§1) Each page of TABLE 7 and 12 includes seven columns. The columns in each table are numbered from left to right such that the left-most column in each table is column 1 and the right-most column in each table is column 7. Thus, the first column in each table is labeled “AVC ID”; this column simply lists an internal reference number used to refer to the carboxyl-terminal amino acids of the PL proteins listed in the second column. […] All PL peptides were biotinylated at the amino-terminus and the sequences of these PL peptides are presented in TABLE 8 (see end of specification).
(§2) This column provides the gene name for the PDZ portion of the GST-PDZ fusion that interacts with the PDZ-ligand to the left. For PDZ domain-containing proteins with multiple domains, the domain number is listed to the right of the PDZ (i.e., in column 5 labeled “PDZ Domain”), and indicates the PDZ domain number when numbered from the amino-terminus to the carboxy-terminus.
(§3) The third column labeled “Peptide Optimal Concentration” in the tables is a number reflective of the binding interaction between the PL protein and PDZ protein. […] The column labeled “Protein Optimal Concentration” refers to the protein concentration used to assay PL interaction (in ug/ml); a ‘0’ is indicative of 5 ug/ml protein concentration; any other value represents the concentration (in ug/ml) used to determine the dissociation constant for a given interaction.
(§4) Finally, the seventh column labeled “Classification” is another measure of the level of binding. In particular, it provides an absorbance value at 450 nm which indicates the amount of PL peptide bound to the PDZ protein. The following numerical values have the following meanings: ‘1’—A450 nm 0-1; ‘2’—A450 nm 1-2; ‘3’—A450 nm 2-3; ‘4’—A450 nm 3-4; ‘5’—A450 nm of 4 more than 2× repeated; ‘0’—A450 nm 0, i.e., not found to interact. Thus, higher numbers indicate stronger interactions.
(§5) For convenience, the assay conditions described in this section are referred to as the “G′ assay” and the “G″ assay,” with the specific conditions described in the preceding section on G assays being referred to as the “G^0 assay.” The “G′ assay” is identical to the “G^0 assay” except at step (2) the peptide concentration is 10 uM instead of 20 uM.

[2] = target: T2, PDZ protein (GST-PDZ fusion) (Homo sapiens, UniProt Q6P0Q8); assay: as above
T2 construct: made in house; host or cells: E. coli (DH5alpha, BL21 or JM109)
Source text: as §1, §2, §3, §4, §5

[3] = tested on: PDZ protein (GST-PDZ fusion); assay: as above; details: PDZ SHANK, PDZ Domain 1
Source text: as §1, §2, §3, §4, §5

[4] = target: T3, PDZ protein (GST-PDZ fusion) (Homo sapiens, UniProt Q12959); assay: as above; details: PDZ DLG1, PDZ Domain 2
T3 construct: made in house; host or cells: E. coli (DH5alpha, BL21 or JM109)
Source text: as §1, §2, §3, §4, §5

[5] = target: T4, PDZ protein (GST-PDZ fusion) (Homo sapiens, UniProt Q5TCQ9); assay: as above; details: PDZ KIAA1634, PDZ Domain 1
T4 construct: made in house; host or cells: E. coli (DH5alpha, BL21 or JM109)
T4 sequence (Q5TCQ9 1-1481): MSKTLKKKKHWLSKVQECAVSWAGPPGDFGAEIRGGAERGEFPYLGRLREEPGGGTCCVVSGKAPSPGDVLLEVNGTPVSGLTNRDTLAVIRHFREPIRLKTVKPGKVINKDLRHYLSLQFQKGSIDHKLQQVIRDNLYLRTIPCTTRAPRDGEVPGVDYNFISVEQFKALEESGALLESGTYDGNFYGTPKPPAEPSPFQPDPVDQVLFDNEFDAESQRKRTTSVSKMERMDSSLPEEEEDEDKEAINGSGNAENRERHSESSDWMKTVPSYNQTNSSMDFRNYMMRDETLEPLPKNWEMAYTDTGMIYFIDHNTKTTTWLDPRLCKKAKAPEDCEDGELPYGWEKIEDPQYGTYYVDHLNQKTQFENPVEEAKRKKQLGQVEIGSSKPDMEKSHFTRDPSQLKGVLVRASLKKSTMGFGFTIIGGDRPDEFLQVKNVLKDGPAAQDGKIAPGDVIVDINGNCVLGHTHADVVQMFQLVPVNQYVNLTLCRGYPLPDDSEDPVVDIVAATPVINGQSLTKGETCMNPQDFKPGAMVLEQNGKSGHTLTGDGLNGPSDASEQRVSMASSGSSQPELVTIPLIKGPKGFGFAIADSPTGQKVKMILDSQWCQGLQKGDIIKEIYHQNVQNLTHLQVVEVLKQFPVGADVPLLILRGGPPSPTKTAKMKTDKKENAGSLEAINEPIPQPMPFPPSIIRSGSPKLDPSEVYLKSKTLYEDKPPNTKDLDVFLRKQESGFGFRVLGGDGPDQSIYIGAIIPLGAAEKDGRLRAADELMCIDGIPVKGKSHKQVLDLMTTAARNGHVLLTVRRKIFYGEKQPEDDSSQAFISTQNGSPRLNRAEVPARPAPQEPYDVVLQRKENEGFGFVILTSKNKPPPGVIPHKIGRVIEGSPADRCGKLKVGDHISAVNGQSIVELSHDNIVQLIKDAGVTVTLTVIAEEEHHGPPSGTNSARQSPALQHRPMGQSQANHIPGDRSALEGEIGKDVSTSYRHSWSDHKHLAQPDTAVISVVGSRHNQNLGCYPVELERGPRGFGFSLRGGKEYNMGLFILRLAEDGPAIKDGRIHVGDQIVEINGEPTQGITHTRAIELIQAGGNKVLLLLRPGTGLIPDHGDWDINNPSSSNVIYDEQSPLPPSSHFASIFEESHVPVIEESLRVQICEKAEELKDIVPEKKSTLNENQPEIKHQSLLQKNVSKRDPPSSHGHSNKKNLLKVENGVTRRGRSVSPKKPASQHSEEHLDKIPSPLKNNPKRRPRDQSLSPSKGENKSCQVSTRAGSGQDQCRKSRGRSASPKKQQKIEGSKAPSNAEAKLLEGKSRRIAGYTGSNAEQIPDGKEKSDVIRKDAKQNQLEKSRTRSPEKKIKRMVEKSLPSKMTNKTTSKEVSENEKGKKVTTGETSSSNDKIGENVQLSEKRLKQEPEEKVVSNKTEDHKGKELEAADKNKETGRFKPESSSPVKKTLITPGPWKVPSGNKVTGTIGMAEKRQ
Source text: as §1, §2, §3, §4, §5

[6] = target: T5, PDZ protein (GST-PDZ fusion) (Homo sapiens, UniProt Q8TEW0); assay: as above; details: PDZ PAR3, PDZ Domain 3
T5 construct: made in house; host or cells: E. coli (DH5alpha, BL21 or JM109)
Source text: as §1, §2, §3, §4, §5

[7] = target: T6, PDZ protein (GST-PDZ fusion) (Homo sapiens, UniProt Q9P202); assay: as above; details: PDZ KIAA1526, PDZ Domain 1
T6 construct: made in house; host or cells: E. coli (DH5alpha, BL21 or JM109)
T6 sequence (Q9P202 1-907): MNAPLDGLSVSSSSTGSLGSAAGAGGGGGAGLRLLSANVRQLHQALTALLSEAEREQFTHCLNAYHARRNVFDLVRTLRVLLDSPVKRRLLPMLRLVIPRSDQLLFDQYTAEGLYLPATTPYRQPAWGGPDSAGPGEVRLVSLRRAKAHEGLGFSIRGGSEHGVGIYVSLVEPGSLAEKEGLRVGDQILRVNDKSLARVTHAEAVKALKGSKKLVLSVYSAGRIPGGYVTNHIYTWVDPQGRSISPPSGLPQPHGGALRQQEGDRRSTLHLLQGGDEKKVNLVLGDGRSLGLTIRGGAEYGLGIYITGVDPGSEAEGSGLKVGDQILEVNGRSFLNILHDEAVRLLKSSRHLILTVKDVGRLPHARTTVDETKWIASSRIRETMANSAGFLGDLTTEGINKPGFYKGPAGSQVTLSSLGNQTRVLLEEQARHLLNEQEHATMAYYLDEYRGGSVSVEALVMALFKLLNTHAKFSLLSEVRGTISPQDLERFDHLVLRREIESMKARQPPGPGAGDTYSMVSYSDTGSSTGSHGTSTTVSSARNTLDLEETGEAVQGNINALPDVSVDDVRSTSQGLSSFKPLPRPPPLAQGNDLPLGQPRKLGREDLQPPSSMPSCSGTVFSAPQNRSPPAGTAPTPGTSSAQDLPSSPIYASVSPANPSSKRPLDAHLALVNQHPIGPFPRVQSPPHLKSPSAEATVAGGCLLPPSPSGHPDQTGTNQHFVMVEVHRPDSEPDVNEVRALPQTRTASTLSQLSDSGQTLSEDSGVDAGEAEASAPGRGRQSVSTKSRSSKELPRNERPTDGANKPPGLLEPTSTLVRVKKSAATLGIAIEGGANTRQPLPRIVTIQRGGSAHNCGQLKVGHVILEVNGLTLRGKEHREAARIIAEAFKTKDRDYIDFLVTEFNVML
Source text: as §1, §2, §3, §4, §5

[8] = target: T7, DLG-1 (Homo sapiens, UniProt Q12959); assay: G assay competition of short unlabeled peptides with biotinylated 20-mers (Example 6, TABLE 6); details: 100 = no competitor
T7 construct: protein spans from amino terminal end of first PDZ domain to carboxy-terminal end of third PDZ domain in frame with GST in vector; made in house; host or cells: E. coli DH5alpha
Source text: (§6) The potential for unlabeled 8-mers and 3-mers to compete for binding with biotinylated 20-mers to PDZ domains was examined. Interactions between a PDZ domain and two or more biotinylated peptides mimicking PDZ ligands identified through the ‘G Assay’ were used as model interactions. Short, 3 or 8 amino acid, unlabeled peptides were synthesized by standard techniques and used at variable concentrations with a set concentration of biotinylated 20-mer. Ability of both the 3-mer and 8-mer to inhibit longer peptide binding was observed, making PDZ:PL interactions an attractive target for design of small molecule or peptide therapeutics.
(§7) Peptides representing the C-terminal 3, 8 or 20 amino acids of a PDZ ligand were synthesized by standard FMOC chemistry and biotinylated if not used as an unlabeled competitor. Peptides three amino acids in length were acetylated to more properly mimic the peptide bond without introducing an amino-terminal charged group. Peptides were purified by reverse phase high performance liquid chromatography (HPLC) using a Vydac 218TP C18 Reversed Phase column having the dimensions of 10*25 mm, 5 um. Approximately 40 mg of peptide was dissolved in 2.0 ml of and aqueous solution of 49.9% acetonitrile and 0.1% Tri-Fluoro acetic acid (TFA). This solution was then injected into the HPLC machine through a […] syringe filter (Millipore). Buffers used to get a good separation are (A) distilled water with 0.1% TFA and (B) 0.1% TFA with Acetonitrile.
(§8) The G Assay was performed as described in EXAMPLE 3 with the exception that when a short competitor was used, 30 ul of competitor peptide (at twice the final concentration) was mixed with 30 ul biotinylated 20-mer (at twice the final concentration) and then added to the well.
(§9) PSD-95 and DLG-1 were incubated in the wells at 5 ug/ml as described in the G Assay protocol. Biotinylated 20-mer peptides used were 20 uM CLASP-2, 20 uM CD46, 10 uM CD95, and 10 uM KV1.3 (find sequences of peptides in TABLE 8). Competitors (unlabeled, short peptides) tested against each of the biotinylated peptides were 50 uM 8-mer of CD95, 100 uM 8-mer of CD46, 50 uM 8-mer of CLASP-2, and 1 mM and 500 uM acetylated 3-mer of CLASP-2. To deduce sequences, refer to TABLE 8. All absorbances were read at 450 nm after stopping TMB detection reaction at 30 min. Results were normalized in each group by dividing its A450 by the A450 of the PDZ/peptide binding in the absence of competitor and converting to percentage by multiplying by 100.

[9] = target: T8, PSD-95 (Homo sapiens, UniProt P78352); assay: as above; details: 100 = no competitor
T8 construct: protein spans from amino terminal end of first PDZ domain to carboxy-terminal end of third PDZ domain in frame with GST in vector; made in house; host or cells: E. coli DH5alpha
Source text: as §6, §7, §8, §9

[10] = biotinylated 20-mer CD46 20 uM, competitor 100 uM
[11] = biotinylated 20-mer CD95 10 uM, competitor 100 uM
[12] = biotinylated 20-mer CLASP-2 20 uM, competitor 100 uM
[13] = biotinylated 20-mer KV1.3 10 uM, competitor 100 uM
[14] = biotinylated 20-mer CD46 20 uM, competitor 50 uM
[15] = biotinylated 20-mer CD95 10 uM, competitor 50 uM
[16] = biotinylated 20-mer CLASP-2 20 uM, competitor 50 uM

T8 sequence (P78352 58-398 limits assumed): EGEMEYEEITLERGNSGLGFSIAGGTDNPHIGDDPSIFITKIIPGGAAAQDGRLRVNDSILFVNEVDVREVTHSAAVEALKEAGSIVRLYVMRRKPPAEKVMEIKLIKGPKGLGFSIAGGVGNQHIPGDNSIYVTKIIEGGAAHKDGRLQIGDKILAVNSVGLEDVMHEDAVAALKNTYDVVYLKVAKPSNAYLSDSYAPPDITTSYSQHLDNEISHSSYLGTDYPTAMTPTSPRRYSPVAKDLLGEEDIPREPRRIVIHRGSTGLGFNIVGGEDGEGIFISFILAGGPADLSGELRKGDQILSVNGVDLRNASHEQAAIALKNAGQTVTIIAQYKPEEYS
T7 sequence (Q12959 224-546 limits assumed): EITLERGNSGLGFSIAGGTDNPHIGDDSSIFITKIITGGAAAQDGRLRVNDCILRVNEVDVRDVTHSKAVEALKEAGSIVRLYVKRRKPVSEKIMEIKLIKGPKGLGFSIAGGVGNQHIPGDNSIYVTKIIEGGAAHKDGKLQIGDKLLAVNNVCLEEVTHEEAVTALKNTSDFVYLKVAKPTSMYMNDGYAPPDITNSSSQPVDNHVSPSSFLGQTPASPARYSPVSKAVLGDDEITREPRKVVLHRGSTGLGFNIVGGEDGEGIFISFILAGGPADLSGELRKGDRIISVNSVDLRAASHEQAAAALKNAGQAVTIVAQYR
T2 sequence (Q6P0Q8 whole entry, the tested form may be a part): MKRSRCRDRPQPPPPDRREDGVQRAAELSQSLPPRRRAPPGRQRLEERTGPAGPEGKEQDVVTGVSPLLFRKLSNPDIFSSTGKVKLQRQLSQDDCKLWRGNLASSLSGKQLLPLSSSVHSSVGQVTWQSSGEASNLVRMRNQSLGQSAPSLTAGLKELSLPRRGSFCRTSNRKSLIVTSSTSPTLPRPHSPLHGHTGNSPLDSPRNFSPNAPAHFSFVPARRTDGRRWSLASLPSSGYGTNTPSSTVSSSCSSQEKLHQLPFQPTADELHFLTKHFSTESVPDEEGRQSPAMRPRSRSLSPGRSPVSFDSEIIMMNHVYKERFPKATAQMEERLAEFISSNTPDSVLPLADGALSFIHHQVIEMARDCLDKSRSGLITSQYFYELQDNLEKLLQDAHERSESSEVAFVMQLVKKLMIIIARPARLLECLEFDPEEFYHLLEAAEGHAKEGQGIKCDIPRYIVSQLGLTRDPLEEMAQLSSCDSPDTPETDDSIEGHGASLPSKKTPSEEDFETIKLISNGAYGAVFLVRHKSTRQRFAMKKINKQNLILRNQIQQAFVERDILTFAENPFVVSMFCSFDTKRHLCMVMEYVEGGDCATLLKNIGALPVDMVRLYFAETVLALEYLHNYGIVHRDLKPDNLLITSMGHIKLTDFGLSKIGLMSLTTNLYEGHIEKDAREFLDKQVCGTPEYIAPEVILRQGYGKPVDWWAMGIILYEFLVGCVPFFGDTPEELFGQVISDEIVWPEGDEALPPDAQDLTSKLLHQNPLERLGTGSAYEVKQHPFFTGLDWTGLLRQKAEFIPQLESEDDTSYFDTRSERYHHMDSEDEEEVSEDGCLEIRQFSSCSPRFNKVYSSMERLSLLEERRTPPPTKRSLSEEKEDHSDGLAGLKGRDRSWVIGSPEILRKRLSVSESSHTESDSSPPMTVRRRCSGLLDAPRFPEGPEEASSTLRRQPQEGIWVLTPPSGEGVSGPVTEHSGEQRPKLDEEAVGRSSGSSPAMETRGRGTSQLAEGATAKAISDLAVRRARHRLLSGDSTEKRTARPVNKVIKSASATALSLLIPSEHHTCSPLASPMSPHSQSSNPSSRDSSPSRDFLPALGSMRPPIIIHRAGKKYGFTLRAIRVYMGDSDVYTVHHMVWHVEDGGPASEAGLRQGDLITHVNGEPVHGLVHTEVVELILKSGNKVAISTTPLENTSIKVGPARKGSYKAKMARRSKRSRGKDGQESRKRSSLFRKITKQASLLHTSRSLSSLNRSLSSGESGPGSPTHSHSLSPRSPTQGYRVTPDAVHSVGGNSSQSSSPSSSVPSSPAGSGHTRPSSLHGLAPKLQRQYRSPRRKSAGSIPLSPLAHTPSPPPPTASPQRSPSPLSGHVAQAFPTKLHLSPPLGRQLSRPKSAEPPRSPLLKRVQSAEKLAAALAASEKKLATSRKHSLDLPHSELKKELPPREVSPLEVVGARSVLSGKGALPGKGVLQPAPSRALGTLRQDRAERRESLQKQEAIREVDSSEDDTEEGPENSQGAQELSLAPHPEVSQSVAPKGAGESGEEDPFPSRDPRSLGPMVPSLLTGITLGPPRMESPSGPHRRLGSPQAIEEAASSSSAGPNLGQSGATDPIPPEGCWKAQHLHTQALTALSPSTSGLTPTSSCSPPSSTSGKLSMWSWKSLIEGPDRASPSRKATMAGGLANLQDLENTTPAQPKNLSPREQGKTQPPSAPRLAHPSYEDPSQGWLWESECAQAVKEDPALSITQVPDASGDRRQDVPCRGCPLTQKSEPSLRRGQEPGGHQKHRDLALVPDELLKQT
T5 sequence (Q8TEW0 whole entry, the tested form may be a part): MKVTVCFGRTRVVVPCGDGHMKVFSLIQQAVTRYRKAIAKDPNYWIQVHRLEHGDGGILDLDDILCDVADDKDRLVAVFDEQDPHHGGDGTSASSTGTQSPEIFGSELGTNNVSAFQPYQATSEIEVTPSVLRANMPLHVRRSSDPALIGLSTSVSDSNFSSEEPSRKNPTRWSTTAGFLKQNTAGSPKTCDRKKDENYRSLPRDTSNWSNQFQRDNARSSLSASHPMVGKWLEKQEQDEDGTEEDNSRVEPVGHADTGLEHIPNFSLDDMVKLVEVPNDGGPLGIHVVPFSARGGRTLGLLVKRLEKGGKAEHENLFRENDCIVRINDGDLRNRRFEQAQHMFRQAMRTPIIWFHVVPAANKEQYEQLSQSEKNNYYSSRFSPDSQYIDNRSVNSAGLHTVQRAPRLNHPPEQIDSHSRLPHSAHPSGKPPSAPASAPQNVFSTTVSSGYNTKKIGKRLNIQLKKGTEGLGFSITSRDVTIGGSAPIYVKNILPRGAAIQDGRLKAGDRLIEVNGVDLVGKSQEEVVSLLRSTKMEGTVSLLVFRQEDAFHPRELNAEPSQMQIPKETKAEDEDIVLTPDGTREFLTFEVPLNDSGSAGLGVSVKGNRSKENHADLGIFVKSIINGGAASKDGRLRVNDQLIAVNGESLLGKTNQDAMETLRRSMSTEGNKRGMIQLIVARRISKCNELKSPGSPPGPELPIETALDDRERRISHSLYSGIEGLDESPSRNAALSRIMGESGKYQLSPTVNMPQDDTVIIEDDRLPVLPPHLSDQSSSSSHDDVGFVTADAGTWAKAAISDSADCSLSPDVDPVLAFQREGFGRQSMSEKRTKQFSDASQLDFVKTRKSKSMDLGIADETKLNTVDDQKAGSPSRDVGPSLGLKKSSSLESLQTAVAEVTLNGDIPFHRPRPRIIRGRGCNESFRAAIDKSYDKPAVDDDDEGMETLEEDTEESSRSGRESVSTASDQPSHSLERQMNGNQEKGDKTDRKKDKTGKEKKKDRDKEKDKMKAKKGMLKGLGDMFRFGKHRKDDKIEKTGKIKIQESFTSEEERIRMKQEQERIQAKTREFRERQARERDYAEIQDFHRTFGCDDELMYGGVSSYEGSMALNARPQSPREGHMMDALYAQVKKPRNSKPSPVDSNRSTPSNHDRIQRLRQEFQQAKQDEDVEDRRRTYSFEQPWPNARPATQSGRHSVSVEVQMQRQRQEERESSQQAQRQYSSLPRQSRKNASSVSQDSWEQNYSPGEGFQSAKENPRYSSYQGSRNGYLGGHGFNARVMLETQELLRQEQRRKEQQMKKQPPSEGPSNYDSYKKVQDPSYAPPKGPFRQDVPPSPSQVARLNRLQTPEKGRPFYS
T3 sequence (Q12959 whole entry, the tested form may be a part): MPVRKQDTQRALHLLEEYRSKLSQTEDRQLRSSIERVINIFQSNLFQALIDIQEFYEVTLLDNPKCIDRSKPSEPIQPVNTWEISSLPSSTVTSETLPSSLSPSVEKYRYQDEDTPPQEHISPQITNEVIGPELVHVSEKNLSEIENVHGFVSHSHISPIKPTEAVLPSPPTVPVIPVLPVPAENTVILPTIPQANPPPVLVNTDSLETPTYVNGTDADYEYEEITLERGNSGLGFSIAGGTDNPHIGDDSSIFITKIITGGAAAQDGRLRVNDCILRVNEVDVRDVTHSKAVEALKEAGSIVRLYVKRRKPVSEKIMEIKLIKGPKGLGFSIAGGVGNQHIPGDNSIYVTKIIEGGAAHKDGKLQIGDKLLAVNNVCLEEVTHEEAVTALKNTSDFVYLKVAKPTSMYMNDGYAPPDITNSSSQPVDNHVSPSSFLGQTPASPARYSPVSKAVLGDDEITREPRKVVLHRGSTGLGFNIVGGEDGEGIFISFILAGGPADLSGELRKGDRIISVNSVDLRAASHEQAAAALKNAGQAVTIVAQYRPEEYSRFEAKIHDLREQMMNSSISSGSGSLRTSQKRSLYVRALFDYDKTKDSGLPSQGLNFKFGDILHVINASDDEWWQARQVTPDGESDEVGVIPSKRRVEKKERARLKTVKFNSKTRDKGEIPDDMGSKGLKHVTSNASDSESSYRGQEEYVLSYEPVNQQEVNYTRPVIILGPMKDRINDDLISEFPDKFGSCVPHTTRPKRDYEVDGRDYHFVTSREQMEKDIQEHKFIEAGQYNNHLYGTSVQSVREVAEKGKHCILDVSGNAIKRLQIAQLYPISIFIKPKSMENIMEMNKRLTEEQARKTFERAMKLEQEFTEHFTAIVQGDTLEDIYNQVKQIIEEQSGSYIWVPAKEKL

## KDSRPSFVGSSSGHTSTTL (Biotin-KDSRPSFVGSSSGHTSTTL) [CDw128B]
[1]
  Classification: 2 (A450 nm 1-2)
[2]; PDZ KIAA807
  Classification: 5 (A450 nm of 4 more than 2× repeated)
[2]; PDZ KIAA0807(S), PDZ Domain 1
  Classification: 5 (A450 nm of 4 more than 2× repeated)
[3]
  Classification: 3 (A450 nm 2-3)

## VDPNSPAAKKKYVSYNNLVI [GLUR7 (metabotropic glutamate receptor)]
[4]
  Classification: 1 (A450 nm 0-1)
[5]
  Classification: 1 (A450 nm 0-1)
[6]
  Classification: 2 (A450 nm 1-2)

## SSPTYRALLLQGPSQSSSEA (Biotin-SSPTYRALLLQGPSQSSSEA)
[7]
  Classification: 1 (A450 nm 0-1)

## REVKFTSL [CD46 8-mer, unlabeled peptide of the C-terminal 8 amino acids of CD46]
[8]; [10]
  % binding: 90%
[8]; [11]
  % binding: 68%
[8]; [12]
  % binding: 90%
[8]; [13]
  % binding: 63%
[9]; [10]
  % binding: 95%
[9]; [11]
  % binding: 65%
[9]; [12]
  % binding: 81%
[9]; [13]
  % binding: 71%

## MTSSSSVV [CLASP-2 8-mer, unlabeled peptide of the C-terminal 8 amino acids of CLASP-2]
[8]; [14]
  % binding: 105%
[8]; [15]
  % binding: 75%
[8]; [16]
  % binding: 93%
[9]; [14]
  % binding: 90%
[9]; [15]
  % binding: 80%
[9]; [16]
  % binding: 85%
[9]; biotinylated 20-mer KV1.3 10 uM, competitor 50 uM
  % binding: 82%

Source: patent US20050282743A1, “Molecular interactions in cells” (Arbor Vita Corporation, priority 2001, published 2005)
